Source: article PMC6787036

Target: human alpha-thrombin (Homo sapiens, UniProt P00734;P00734 328-363;364-622)
Assay: affinity chromatography (HPLC, aptamer monolith); 5 mM Mg2+, pH 8.0; eluted with 2 M NaClO4; 10 mM Tris HCl, 5 mM MgCl2 (varied 0-20 mM), pH 8.0 (varied 4-10), 0.3 mL/min, elution with 2 M NaClO4; temperature not stated

B1: TBA (15-mer thrombin binding aptamer) (structured_DNA)
DNA: GGTTGGTGTGGTTGG
modifications: 5' amino-C6 (5AmMC6), covalently immobilised on poly(EDMA-co-GMA) monolith by Schiff-base (EDA/glutaraldehyde)
B1: binds.
